Reference: IntAct's records for PubMed 27927196

B1: Lipopolysaccharide-induced tumor necrosis factor-alpha factor (Homo sapiens), Q99732 (parent)
chain: MSVPGPYQAATGPSSAPSAPPSYEETVAVNSYYPTPPAPMPGPTTGLVTGPDGKGMNPPSYYTQPAPIPNNNPITVQTVYVQHPITFLDRPIQMCCPSCNKMIVSQLSYNAGALTWLSCGSLCLLGCIAGCCFIPFCVDALQDVDHYCPNCRALLGTYKRL

Variants of: B1
Settings: with nedd4_human NEDD4, P46934
Chain of nedd4_human NEDD4, P46934 (P46934 whole entry): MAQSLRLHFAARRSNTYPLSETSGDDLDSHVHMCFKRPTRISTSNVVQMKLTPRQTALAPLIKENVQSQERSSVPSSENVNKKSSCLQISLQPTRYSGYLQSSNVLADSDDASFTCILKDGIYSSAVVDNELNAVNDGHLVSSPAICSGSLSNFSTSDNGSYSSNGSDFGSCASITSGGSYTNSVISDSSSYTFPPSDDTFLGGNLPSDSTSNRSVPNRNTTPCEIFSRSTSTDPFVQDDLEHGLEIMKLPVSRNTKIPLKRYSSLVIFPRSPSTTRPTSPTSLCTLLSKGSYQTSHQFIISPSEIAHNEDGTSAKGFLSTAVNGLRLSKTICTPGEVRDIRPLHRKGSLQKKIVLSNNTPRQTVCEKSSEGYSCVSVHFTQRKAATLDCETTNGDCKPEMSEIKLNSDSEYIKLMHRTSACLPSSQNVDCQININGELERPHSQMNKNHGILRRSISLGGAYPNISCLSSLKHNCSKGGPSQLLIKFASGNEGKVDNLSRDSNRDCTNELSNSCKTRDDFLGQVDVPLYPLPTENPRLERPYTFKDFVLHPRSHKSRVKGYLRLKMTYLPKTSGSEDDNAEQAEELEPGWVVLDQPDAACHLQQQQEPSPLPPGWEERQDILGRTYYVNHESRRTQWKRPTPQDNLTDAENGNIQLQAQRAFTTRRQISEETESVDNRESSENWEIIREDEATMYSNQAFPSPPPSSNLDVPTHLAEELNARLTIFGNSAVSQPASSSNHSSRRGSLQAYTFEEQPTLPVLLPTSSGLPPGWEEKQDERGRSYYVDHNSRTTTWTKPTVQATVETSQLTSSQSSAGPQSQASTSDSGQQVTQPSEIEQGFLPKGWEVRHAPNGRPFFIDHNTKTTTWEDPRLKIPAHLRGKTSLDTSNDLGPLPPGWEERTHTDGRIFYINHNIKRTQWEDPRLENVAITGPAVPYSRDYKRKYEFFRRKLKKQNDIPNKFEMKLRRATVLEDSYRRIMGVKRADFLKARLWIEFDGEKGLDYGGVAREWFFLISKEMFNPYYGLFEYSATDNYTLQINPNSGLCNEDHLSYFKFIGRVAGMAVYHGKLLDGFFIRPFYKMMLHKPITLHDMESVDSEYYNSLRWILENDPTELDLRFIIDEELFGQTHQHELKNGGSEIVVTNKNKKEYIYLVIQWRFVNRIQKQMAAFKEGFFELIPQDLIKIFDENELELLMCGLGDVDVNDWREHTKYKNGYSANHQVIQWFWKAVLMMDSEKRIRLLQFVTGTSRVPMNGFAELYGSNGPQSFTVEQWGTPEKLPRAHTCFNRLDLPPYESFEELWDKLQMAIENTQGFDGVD

Variant	effect of a mutation on the interaction
Y23A	disrupting interaction strength
Y61A	with no effect
Y23A;Y61A	disrupting interaction strength
